Results: patent US20120331590A1

How the values were obtained:
[1] = target: BBMV's from FAW (brush border membrane vesicle proteins of Spodoptera frugiperda larval midgut); experiment: heterologous competition: 1,000 nM unlabeled Cry1Da against 0.5 nM 125I Cry1Be on FAW BBMV's (the sites that Cry1Be binds)
[2] = target: BBMV's from FAW (brush border membrane vesicle proteins of Spodoptera frugiperda larval midgut); experiment: homologous competition: unlabeled Cry1Da displacing 0.5 nM 125I Cry1Da from FAW BBMV's
[3] = target: BBMV's from FAW (brush border membrane vesicle proteins of Spodoptera frugiperda larval midgut); experiment: heterologous competition: unlabeled Cry1Be against 0.5 nM 125I Cry1Da on FAW BBMV's (the sites that Cry1Da binds, not Cry1Be's own sites)
[4] = target: BBMV's from FAW (brush border membrane vesicle proteins of Spodoptera frugiperda larval midgut); experiment: homologous competition: unlabeled Cry1Be displacing 0.5 nM 125I Cry1Be from FAW BBMV's

Substance | percent displacement of 125I Cry1Be [1] [%] | IC50 [2] [nM] | IC50 [3] [nM] | IC50 [4] [nM]
Cry1Da (unlabeled, truncated Cry toxin) (from UniProt P19415 28-594) (ligand) | < 50 | 1.5 | – | –
Cry1Be (unlabeled, truncated Cry toxin) (from UniProt O85805 35-641) (ligand) | – | – | > 1000 | 2
